Test results from the domain aggregation screens of Martell et al. (2025).

Test: soluble fraction after stress (log2 fold change); higher = more stays soluble; pooled small domains, quantitative proteomics
Conditions: stress: 50 degC
How it was run: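 Each library was heated to 50°C as a stress step. The libraries, made up of small protein domains, were pooled and analysed at high throughput by quantitative proteomics. The reported value is the base-two logarithm of the fold change in each protein's soluble amount after stress, taken as a measure of aggregation propensity. The higher the value, the more protein stays in solution.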

In order of rising “soluble fraction (log2)” value:
1. HMTGSLRIKHKTYYMLFSWKDESGQWRQKSESTGIPERGGKRKAQEMLNTRLEELQLQSTASL  -3.75
2. HMGIAWGMLREQVAASDVSYRSEVLDILDRTPVWIYDAEGKIVDGRKKRLMDLQGGEPYRHMLEHFFPDLR  -2.48
3. HMGKDTLKLKKNAIPYDENGKKLTNLGYSYIKKTTVLNYYGTKIINGSTYYFLGDGVYIKAANVGTTSH  -2.23
4. HMERKMKNNISDQTTYDTDKILNFNGKGYLNGLVIPNNYQIKEEGYYVFRQVALDGREQILYFTIQDLS  -1.96
5. HMIDAHTALLAKRLEAKGMLPLTDKSSAEEIYAEFGISKKAFKKALGALYKERLVRIGEDGVVWI  -1.27
6. HMAQVVMPNVVGKTEKDATATLEGKNLKVNVEYNLDATSDDGIVKEQSIKSGENIDEGTEITLKVNKV  -1.07
7. HMIMEVDYGTFMKMTEENAIGRVQMDSTEIIFTDKENTQVYSTGIMYDPDLTQRLYDAGAVFA  -0.986
8. HMNSFGWESLIDKEGIADTDLHPSGWVRIDDRRIFVVSEGDFIDKGSGVTVLSVDGNRVVVRELI  -0.836
9. HMAMDITLPLAEVRRQSLEQIERQYLNELMSKHLGRINRAAEAAGITTRQLHKLLTKYSIRKEDFK  -0.673
10. HMFDVRWEQGYALAAAYAQEYGNLDVPRDYKTADGKKLGRWIQSQEQAYEQKKLSEEQISRLEMIGMQWG  -0.604
11. HMNDAARQTTDILQHVRSSGSISFRDLWRLFMPFMAYRDFDAAVKSLVAAGHIATTENERKELHLIAF  -0.542
12. HMARLEELSNGSIVEGLLSGEAVTVVSTKWYGSSSMEVFYKTNRGSTGSQILYREDEPSLTVLEKS  -0.32
13. HMINFKVKNVQDVGSRLDKFLVTNIPEFSRSKIQKHIKNGKVMVNGLLKKTGYKLEINDEINILNN  -0.276
14. HMKREETLKALATKNANYVARSGRRYSFEPMNPYERRIIHTAVQEIEGVTSRSIGSGMDRRVLIEPEGGV  -0.194
15. HMAVVQMVDRPGGLDELLKDVVRAGVNFANAYGRTASDGNSAFFVIDIQDIPGARQKLADVGLQILADEAV  -0.192
16. HMEHQLLHMEKTIFEEIADDYPQLNHTKIRNVLAAFLFTNDDVFKRIADLSGGERGRVSLAKLMLSDA  -0.188
17. HMNLSPADFSSVRNALGLSLSTVAKESGINRNYLSNFEKKKHFLEETAKVKLRDYYMSIDPDAFAAAL  -0.177
18. HMVDKNDLTAIDGIGPFLEKKLNDVGVFTYADIAGWDAAKIEEITQQISFFEGRIEKDDWVGQAQKLIDDQ  -0.157
19. HMIPSGISEHPISKLPLSMSIIHRLELAGIKTIGDITGENFSRLQEIPRIGKVTAKRILEAIQSYSEQLP  -0.15
20. HMQNEIQQLAIDLIARAHKSGASDIHIVDTGTYTRIKFRVLGLLREDSQMEAETGRQMISTIYGILG  -0.135
21. HMFPELEPDEQLIADLLRKTNNLQINIITVRTGLPINRVTALLFQMEMKGVVRPLAGGTYHLLV  -0.108
22. HMNAAYDEELDFIFSLSEKGKWEEAEAEIGLLLQKHPEDATLQRIGEWVTTQKILLRQQAVEDRIRS  -0.0763
23. HMKVSAEEQNILDALQAAGGYLPFHDKSNPEEIYEAFGISKKTFKMIIGSLYKQQKINLTQTGIQLII  -0.0574
24. HMPVEQVWHIAEAGKTKGPFSRASMGRMSADGALTRDTLVWTAGQDGWKKAADVTALATLFT  -0.0223
25. HMASITLDQAKEIALTHAGQTADAVWFEKAEQDYDDGILVYELEFAAKGTEYEYEIDAQTGAIREYKWDD  -0.0142
26. HMLIADADSLRKQIETVLANAPNEVAAYRGGKETLMGWFVGQIMRATGGKADPKLTREILAELLQ  0.00102
27. HMSSPVIQINTRNDGWIIKLLQPAVEKDVLEGYLADVGLKLQSQMMEKILAAPAGTEFHIKRGSNILTE  0.00933
28. HMTPDVHRGDTITVSLRAGAIRVRVPAKALEEGAAGGEIRVVNLTGGREYRVRVTGPGTAEAIL  0.0275
29. HMNIGELINKKRTELGLTLEEVGNAVGVSKSTVKKWEDGFISNMRRDKISKLAKVLEMNPVSLITGE  0.0389
30. HMKNNNIIFSEFLKEVENGRVVEVRIQGNNIQGIMSNGKEFTTYSPNYPNLIEKLTETGVSISAAPL  0.0449
31. HMTPQGALDYSRNAKYLRDQVTAINYLKQARLSLNTTDANYRQTLEQINQAIAKHNQALQQAGVQSQQLAT  0.0556
32. HMTSKTLSADGGENTRLDKFLSNHLPEISRTKIQKMINDGLVYVNQNYAKASLVLDGTELISYTIPD  0.0679
33. HMGETPEILRDWEAAQNAVNDMLSKYAPGGYMGKIIYPLLTPLKERLEAGERTPDLYNAIVEAT  0.0804
34. HMNEAMIMIDLKGKSRDEAVKELDELNLKYRFTGNGIVKDQKPKAGEEINSDTVVEVELSEIK  0.114
35. HMADIGRMKELIDILNRASAVYYQGKDEIMSNFEYDKLYDELVSLEKESGLVLAGSPTQKVGY  0.153
36. HMLHIKKGDTVIVNAGESKGQQGKVLEVLVGKERAIVEGVNMVSKHTKPNAKNPQGGIVKKEAPIHISNLQ  0.179
37. HMPINPKVKQIYDTLKDGGADVGSEKEFNDYFFAKGKDGYNNRKEVFNTLREGGADAGKSYEEFAGWLGL  0.362
38. HMDLDEELDFLSDADESATKLDLARAYIDMGDKDGARDILAEVLEEGRSEQKREAQALLDSI  0.406
